This is an account of results in the DeepSol protein solubility set.

The nature of the series: soluble on expression in E. coli; label from the status in PepcDB or PDB records.
As for “SNAMKPDIYENNREGILCVYKNEKWLVCIKNWKPDNDIEGIAHLEIHHSTDEQFILSAGKAILITAEKENDKFNIELTLMEKGKVYNVPAECWFYSITQKDTKMMYVQDSNCSMDNSDFCDLSKEEIEYIQTNARKLFEK”, the “soluble on expression in E. coli” value is listed as “soluble”.

For “MPDSPTPGRRERKKAATRQAIADAALQLFLEHGFDRVSVRDVAERADVSTTTLFAHFPSKESLVFDREQEVDAALAAAVRERPDGQGVVEALRAHALESWVPIVTDPRRARFTALVSDTPALREYSERMWMRHADTLSTVIAEELDREPDDSACAALARFVLEIPALTTGRHDPRATVETVFDLLLHGWRSQAGPRPPQADGR”, the “soluble on expression in E. coli” value is “not soluble”.

Regarding “MGSDKIHHHHHHMPTPADDLVVIGKIVSVYGIRGEVKVYSFTDPLDNLLDYRRWTLRRDGEIRQAELVRGRLHGKVLAAKLKGLDDREEARTFTGYEICIPRSELPSLEEGEYYWHQLEGLKVIDQGRQLLGVIDHLLETGANDVMVVKPCAGSLDDRERLLPYTGQCVLSIDLAAGEMRVDWDADF”, the “soluble on expression in E. coli” value is listed as “soluble”. With “MAHHHHHHMCVSVCACARPCSLLISLFEKRQHGWGCCNSFTFEHVCSADAVRCLFFFVCDSPSSSLPPSLFTRHSPLLFSSCPFACPSSVHPQRQDNTRRRAEQPCAQALWIRRGINRIGNLLVPNDNYCWFEDFFTPVLESVQEAQRASRWKTHTAPSEFIEAMGAAIAKNHPDTCTSSLVYWCYRNGISVFSPAFTDGSMGDMIYFYNFSHKGLVVDPLEDVVRLRKLAAKEKGRNLAIVLGGGLPKHHLLRNVSMDAVVMVTTGLEADGCVSSGVLADDVACGLLREETETVRVQGDATVVFPLMLIAEKAATLEGAAA”, the “soluble on expression in E. coli” value is given as “not soluble”. As for “MKVKEAMNPEIITVSPETRPLEAFEKMYKHGVRRLFVLEDDGKPVGVVSYTDLIGVLGTIKPDSEHPERDLKVRDIMVDEVITISADDNIEDAANLMLRADISGLLVMDDERPVGVITKTDICRLVAAEILVPS”, the entry is “not soluble”; as for “MLDLQISKKTVDPLKRPPHSVEAEQSIIGGLMLDNQVWDKVSNKLCETDFYRTEHRILFRAISALAKKDQPFDVVTLLDALKTRNELDDAGGEAYLFELANNTPSVANVTAYADIVREKSVQRQLIAVATEIADSAYNPAGREVPELLDMAETKVFAIGEQTASDGGPENIKSILVRAVEKIDALYHNGDAITGLATGLSDLDEMTSGLQPSDLIIVAGRPSMGKTTLVMNMAEHAAIKAGKPVLVFSMEMPADSLAMRMMSSLGRIDQHRIRTGKLDDNDWPRVTSAVHMLSEAPLFIDDTPALSPGEMRARARRLAKEHGSLGLIVVDYLQLMKVPGFNADNRTAEISEISRSLKSLAKELQVPVIALSQLNRSLEQRADKRPVMSDLRESGAIEQDADLICFIYRDEVYNEDSPDKGTAEIIVAKQRNGPIGKVRVAFLGKYTRFEDLAFNGYQGVE”, “not soluble”.

With “MNIATRPADYWQAIIFDFDGVIVESGDIKAQAFAELYRHHGETIAQAAVTYHRANGGMSRYLKFHYFQQNLLNYPPLTKEEEQELDRRFSELVMNAVISCQPVAGAEALLHRMVDQIPLFVASGTPESELRIIVEQRDLSRYFTEVRGSPRLKETLVADILSAYPLVPERVLMIGDALVDYESAHQNGIAFLGRVRPGDDNPFPESVEIVPDLCPVAI”, the “soluble on expression in E. coli” value is given as “soluble”. As for “MKTLLYQKVYDQLKLSIQEGKIPVGSKMPTENELMAQFDVSSITLKKALELLKKDGYISRRPRVGTFVINDSPNSEQIETRKFDKPLFGCIMTNFDDTFGTILLSGMLEHSDSKAHIIVKKSLGDTEREEEILQEFIEMNVAGILILPASSKFVSPTLLELASQKFPLVVIDRTLEGLPISSISSDNTEAGRIITEKLFELGHKHIGMITSTSPVSTLDSRVNGFIRGHASFHTAFHSDYVFREIESVMPNSTVSIQTDIDKIARFLETHPEITALVATEYNIALLIKQACNKLGKSIPTNLSVVCFDHPDNFFDTSAFQFTHIKQAQYEIGVKAVDMLLNQVLKPDTINKETLPPLLVEGDSVEPLKSTSK”, the entry is “not soluble”. As for “MGSDKIHHHHHHMRVSSDDALFYRIEAFFRGRAYGPHRHDTYAVGITTAGIQSIRYRGELVHSSPGDTVVIHPDEIHDGRAGTVAGYCYRIVHLQPEALQQILGQTSLPFIKEGVSQNAQLYQAIWAMLREFDRPLEPLERTDLLFDLAMALQAAAGTAKAKHTGNIKAALIARDCIRSAPSQRIELDVLARESGRDRWSLSRDFRQFFGTSPSRYMTMRRLDIARRLMSNGTPLAECAVAVGFADQSHMSRQFVEAFGLTPTRWLTMLR”, the entry is “not soluble”; as for “MEIKERIQLLLSEMNRGVYEKEAEIGLSLLAALAGESILLLGPPGVAKSMVARRLKRAFVDARAFEYLMSRFSTPDEIFGPVSISRLKESDKYERAVDGYLPTADVVFLDEIWKAGPAIQNTLLTVINEKLFRNGDTELKLPLKLLVAASNELPTQGEGLEALWDRFLIRIISTCVKQEEAFYQMLLDDDDEEEQEACRWQISDEEYAGWQKEIRQIKVSAEVLSCITEIRKNLEKVEIQGSEVHRNVYVSDRRWKNIVKLLKASAFIHGRKEVCLTDLLPVYHCLWNEPEECADIRQIVVRALFVPYVKEIAAINLSLKSDLKVSRVREALEKARQKGDRRDDDLMIIDHFYYQIENHGTGNTYIFIVDYKNLKEYSPKDVPATGVMYADPLNPKRTIIRTFSDATKMKEQGAERVTLYRDEKNLYINGVRFPMRRLKRGEQQQLWLGNMTLTDRDYETELETAHGRIEKLVKDLSENIFISEEDKKGVAQYVATLRKEIAWARVDVRKLRYGDES”, “not soluble”; as for “MGSDKIHHHHHHMFELHPDSSTPLVNQIIDGLRELIDNQTLKPGAKVPSIRAFAASYSVSTFTVVEAYDRLVAQGLLVSRGNAGFFVNRAAGELLEQHNTEADTSRPTFNSEWYLQQIFEIRQLPYKPGCGWLPNDWMYEDGLRRGLRQVAGSPLELSGYGDPMGLMELRALTAQNLQQELSIVANPAQLMLTHGASQALDLAARTLVRPGDVVLVDDPGYPNLMSILRTQGATLVGVPRTPAGYDLNQLEQLLSHHRPTAFFTQPHLHSPTCSRTPLPQLHRLLQLASQHGFRLVENNLYADMVAEPQPCLASLDHLQQVVYVGSYSKSISPNVRVGYMLANPELMQKLLHLKMRSGLTTSQVMERVVYAAIIDGRWRKHLKRLRQRLAEAHQEVGRHLHRLGFELFTESDEGMYIWTRHPAIPDSAALLDDALEKGIMLGPGQLFMVDAKATGWMRFNVAFSTDPAMWELLEKVLVKHVRRSGM”, “not soluble”. With “MSLQMERRGISALPLHYGHPPEYLFKRAVKLSGIMAEIIVDTYGQGELIRRLADPFWFHSLSLVTGFDWNSSGTTVFTLSALKEYLSTRDLGVKVCGGKASAMADMRADLLSSVETGILKEDDKEYVYENARRIAKIDNSLLQDGYDLYMQFVVVSDRGRHAVIQQGMNSEDRMARRYHWLIGNERVDVEGRYGLSADKTSLNVLDLSATESRDNRSAIVASVREGEVWRFRSGAQSTLDNFSLPFLDLSGRVNWKKLRDLYEYGVDDFEKIYMEKGIGKSTLRALSYIAEVIYGPKASFRDPVKFSFAVGGKDGIPKPVNTYDYDRAIEFFSDLIREKDLNVREKETIARSLAHLSQMKTNFYSEGHHHHHH” the entry was “soluble”; with “MSDSSHAFSATERAAVYRAIAERRDMRHFSGGSVAPELLARLLEAAHQAPSVGLMQPWRFIRITEPALRRAIHGLVEEERGRTAEALGERSDEFMRLKVEGVLDCAELLVAALMDDRERHVFGRRTLPQMDLASLACAIQNLWLASRAEGLGMGWVSLFDPAALGELLGLPPGSEAVAVLCLGPVAEFYPAPMLALEGWSEPRPLAELVYQNRWGERA”, “not soluble”. In the case of “GMNQSIIFTEQLTWDVQLSAIHFTAQQQGMVIDCYIGQKVLEHLAAEKINNSEQALSLFEQFRFDIEEQAEKLIEQEAFDVQGHIQVERVD”, the “soluble on expression in E. coli” value is on record as “soluble”.

For the sequence “VDNVFIVGHRKLDMDALGSAVGMQFFAGNIIENSFAVYNPDEMSPDIERAIERLQADGKTRLISVSQAMGLVTPRSLLVMVDHSKISLTLSKEFYEQFQNVIVVDHHRRDDDFPDNAILTFIESGASSAAELVTELIQFQNAKKCLNKIQASVLMAGIMLDTKNFSTRVTSRTFDVASYLRSKGSDSVEIQNISATD”, the “soluble on expression in E. coli” value is “not soluble”. With “SSKIILIPSNIPQEFPEASISNPERLRILAQVKDFIPHESTIVIDKVPTITSEQSTYINICIFNLLEACSSRVLVPGTLVNIDAFYDGESINPVDIYEVNGANFTMENIQLIDEMNNSIGKFN” the entry was “soluble”. As for “MSLATYFMYPSTGGLNTYIAVLKKTLEAQGYTVDVLARKPGPRLHLLSEEINMNTLRKMMSKPLNHYYKKHGQFSEPYIIKQELDRYVFELSSALLPIETYDLIHAQDVVSTRALARVKPAHIPLVTTIHGLYSEERFNRGVIQTKNDHSWKYSLAQEYIGALSADKVIVLTNWMRQRFQDQLNISSHHFETIPNGMFIEEFTNKLTNKTQVHIPESKKFTILCPARLVAEKDHRTLIDAVQLLKKEREDFICLLAGDGELREELEGYCREKEVQDVCLFLGNRNDIPELMNRSDLVVLPSLQENLPFTVMEAQVAGKPLIVSNAGGLPEMVHDGVTGRLFKKRDSRQLAFILKELMDHDEDRQLLGNNAKDWGRSQWSANTFCEKIKTVYAEALEQKKKEPRLMEFESVNRPTYHTLELHRFFEKSLWKKIDQCLPSNYTIPDPAFIKSLTTYEGHHHHHH”, the entry is “not soluble”. With “MSLFPGDIEELARRIITDFTPLGLMVSTAESCTGGLIAGALTEIAGSSAVVDRGFVTYTNDAKRDMLGVGTETLTTFGAVSRQTALQMAHGALYRSRANFAVAVTGIAGPGGGSAEKPVGLVHLATKARNGNVLHHEMRYGDIGRTEIRLATVRTALEMLIALNQAGSV” the entry was “soluble”. As for “MGHHHHHHSHMLWECKQLGAHSPSTLLTTLMFFNTKYFLLKTVDQHMKLAFSKVLRQTKKNPSNPKDKSTSIRYLKALGIHQTGQKVTDDMYAEQTENPENPLRCPIKLYDFYLFKCPQSVKGRNDTFYLTPEPVVAPNSPIWYSVQPISREQMGQMLTRILVIREIQEAIAVANASTMH”, the “soluble on expression in E. coli” value is “not soluble”. With “MGSDKIHHHHHHMLNMDLSQRVVINTADLEWQNSPAAGVLRKRLAREEAERGHATSIVKYQAGAKFNSHPHPLGEEILVLDGVFSDETGDYPAGTYLRNPEGFVHAPFSVQGCTLLVKLHQFQTTDSQQVAINTNETQWLPGHGQLQVMPLHQHGTESTALVKWPAGTHFQPHRHFGGEEIYVISGVFIDELGRYPAGTWIRSPHLSQHNPYVEQDTVILVKVGHL”, the “soluble on expression in E. coli” value is “not soluble”.

“MTVTLAGNPIEVGGHFPQVGEIVENFILVGNDLADVALNDFASKRKVLNIFPSIDTGVCATSVRKFNQQAAKLSNTIVLCISADLPFAQARFCGAEGIENAKTVSTFRNHALHSQLGVDIQTGPLAGLTSRAVIVLDEQNNVLHSQLVEEIKEEPNYEAALAVLA”: the “soluble on expression in E. coli” value was “soluble”. Consider “MISSMTGFGRSKVESDTFQITVEMKSVNHRFLEMSIRLPKQMMVFEDKIRKIIAQQVRRGRIEVSISIAGEGLVERKLSVNWSLLEQYQSMMEDIKGKFQLQDSITLEQLMAMPEVTAIEEIENVNEHFENSLYEAVRQAAHMLKTMRDGEGERLHKDIAYRLQEISNCVNAIIPHAPIVTQKYRERLENRLKELHNQDLDEQRLLTEVAIFAERCDIHEELVRLQSHLEQFRETLQIEEPVGRKMDFIVQEMHREINTIGSKANDLTISKYVVEMKNNLEKIREQVQNIE”, for which the “soluble on expression in E. coli” value was “not soluble”.
